Results reported in paper PMC8996214, “Aptamer blocking S-TLR4 interaction selectively inhibits SARS-CoV-2 induced inflammation”.

How the values were obtained:
SARS-CoV-2 spike trimer = SARS-CoV-2 spike trimer (SARS-CoV-2, UniProt P0DTC2); experiment: BLI; conditions: protein: commercial; tags: His
HCoV-HKU1 spike protein = HCoV-HKU1 spike protein (HCoV-HKU1, UniProt Q5MQD0); experiment: ELISA; conditions: protein: commercial
TLR4 = TLR4 (UniProt O00206 24-631); experiment: ELISA; conditions: protein: commercial
Sequence of TLR4 (O00206 24-631): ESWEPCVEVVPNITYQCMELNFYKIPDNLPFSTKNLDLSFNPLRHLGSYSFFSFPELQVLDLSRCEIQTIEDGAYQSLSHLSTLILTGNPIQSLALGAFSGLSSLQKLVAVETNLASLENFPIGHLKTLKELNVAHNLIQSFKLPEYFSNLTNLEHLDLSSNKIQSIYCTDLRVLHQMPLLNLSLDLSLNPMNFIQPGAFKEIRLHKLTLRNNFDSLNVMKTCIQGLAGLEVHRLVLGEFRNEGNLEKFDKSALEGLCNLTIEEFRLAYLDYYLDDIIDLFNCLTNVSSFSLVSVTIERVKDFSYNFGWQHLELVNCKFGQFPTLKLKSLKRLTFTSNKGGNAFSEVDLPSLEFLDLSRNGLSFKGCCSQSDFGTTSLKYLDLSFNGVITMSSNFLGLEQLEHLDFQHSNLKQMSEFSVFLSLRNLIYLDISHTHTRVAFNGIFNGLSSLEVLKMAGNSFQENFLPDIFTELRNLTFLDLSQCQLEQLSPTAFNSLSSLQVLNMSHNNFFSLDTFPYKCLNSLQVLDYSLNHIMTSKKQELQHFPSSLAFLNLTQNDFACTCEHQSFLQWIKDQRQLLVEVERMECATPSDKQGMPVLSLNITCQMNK

ACE2 = ACE2 (UniProt Q9BYF1 18-740); experiment: ELISA; conditions: protein: commercial
Sequence of ACE2 (Q9BYF1 18-740): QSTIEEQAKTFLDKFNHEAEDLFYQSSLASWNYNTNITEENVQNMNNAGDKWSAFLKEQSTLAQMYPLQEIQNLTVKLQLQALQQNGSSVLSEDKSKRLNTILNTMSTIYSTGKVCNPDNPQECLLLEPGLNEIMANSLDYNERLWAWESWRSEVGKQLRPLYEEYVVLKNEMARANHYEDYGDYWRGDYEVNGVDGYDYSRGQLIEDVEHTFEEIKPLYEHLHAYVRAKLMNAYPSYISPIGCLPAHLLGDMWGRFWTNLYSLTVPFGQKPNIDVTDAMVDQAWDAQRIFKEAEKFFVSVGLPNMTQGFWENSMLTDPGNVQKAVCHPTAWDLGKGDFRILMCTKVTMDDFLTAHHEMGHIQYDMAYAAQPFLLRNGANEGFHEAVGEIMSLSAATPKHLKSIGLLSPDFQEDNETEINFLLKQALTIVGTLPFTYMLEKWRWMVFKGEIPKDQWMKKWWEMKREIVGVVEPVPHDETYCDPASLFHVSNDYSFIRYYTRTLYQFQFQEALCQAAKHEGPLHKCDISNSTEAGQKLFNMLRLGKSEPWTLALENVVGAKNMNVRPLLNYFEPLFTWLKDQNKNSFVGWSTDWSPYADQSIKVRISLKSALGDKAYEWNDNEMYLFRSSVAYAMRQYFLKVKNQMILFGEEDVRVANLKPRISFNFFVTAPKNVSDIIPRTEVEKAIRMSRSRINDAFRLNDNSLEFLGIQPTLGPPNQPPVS

SARS-CoV-2 spike RBD = SARS-CoV-2 spike RBD (SARS-CoV-2, UniProt P0DTC2 319-541); experiment: ELISA
PDGF-AA = PDGF-AA (UniProt P04085 87-211); experiment: ELISA; conditions: protein: commercial; chain copies: 2
SARS-CoV spike protein = SARS-CoV spike protein (SARS-CoV, UniProt P59594 14-1195); experiment: ELISA; conditions: protein: commercial; chain copies: 3; label: 5'-biotin (BLI, ELISA); Cy3 (flow cytometry); FAM (imaging); G-quadruplex
MERS-CoV spike protein = MERS-CoV spike protein (MERS-CoV, UniProt K9N5Q8 18-1296); experiment: ELISA; conditions: protein: commercial; chain copies: 3; label: 5'-biotin (BLI, ELISA); Cy3 (flow cytometry); FAM (imaging); G-quadruplex
Sequence of MERS-CoV spike protein (K9N5Q8 18-1296): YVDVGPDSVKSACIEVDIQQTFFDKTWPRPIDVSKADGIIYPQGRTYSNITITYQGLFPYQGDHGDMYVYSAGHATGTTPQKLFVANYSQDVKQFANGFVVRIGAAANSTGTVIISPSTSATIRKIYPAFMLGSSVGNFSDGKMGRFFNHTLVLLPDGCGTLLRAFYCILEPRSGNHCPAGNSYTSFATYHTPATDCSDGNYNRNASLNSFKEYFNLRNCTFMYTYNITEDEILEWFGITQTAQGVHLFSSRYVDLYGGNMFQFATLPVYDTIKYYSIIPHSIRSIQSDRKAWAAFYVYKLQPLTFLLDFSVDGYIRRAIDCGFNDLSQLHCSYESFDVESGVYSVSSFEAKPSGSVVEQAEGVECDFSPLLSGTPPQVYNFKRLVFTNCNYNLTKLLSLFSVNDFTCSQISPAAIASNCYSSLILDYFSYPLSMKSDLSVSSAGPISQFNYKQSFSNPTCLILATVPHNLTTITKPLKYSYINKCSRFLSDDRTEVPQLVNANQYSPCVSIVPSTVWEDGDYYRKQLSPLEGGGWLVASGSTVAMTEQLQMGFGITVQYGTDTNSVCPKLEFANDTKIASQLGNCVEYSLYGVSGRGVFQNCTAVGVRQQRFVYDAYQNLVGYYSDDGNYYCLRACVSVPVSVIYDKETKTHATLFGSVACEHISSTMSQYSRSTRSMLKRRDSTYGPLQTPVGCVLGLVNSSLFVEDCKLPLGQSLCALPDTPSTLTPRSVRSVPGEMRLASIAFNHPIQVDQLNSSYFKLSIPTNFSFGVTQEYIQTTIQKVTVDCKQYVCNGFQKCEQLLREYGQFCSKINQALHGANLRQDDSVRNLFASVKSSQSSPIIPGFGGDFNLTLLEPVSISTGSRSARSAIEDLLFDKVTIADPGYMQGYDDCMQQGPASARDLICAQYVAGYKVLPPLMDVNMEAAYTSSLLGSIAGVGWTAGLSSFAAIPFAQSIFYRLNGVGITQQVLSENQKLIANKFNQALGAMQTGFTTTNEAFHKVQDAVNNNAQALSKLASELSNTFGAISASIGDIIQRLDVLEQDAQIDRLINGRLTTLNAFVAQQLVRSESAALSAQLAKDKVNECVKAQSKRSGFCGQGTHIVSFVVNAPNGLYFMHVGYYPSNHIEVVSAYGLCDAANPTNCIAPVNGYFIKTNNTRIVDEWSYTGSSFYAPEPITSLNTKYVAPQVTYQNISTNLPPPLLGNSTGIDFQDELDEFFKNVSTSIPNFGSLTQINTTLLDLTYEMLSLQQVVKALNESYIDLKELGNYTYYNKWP

Sequence of HCoV-HKU1 spike protein (Q5MQD0 13-1300): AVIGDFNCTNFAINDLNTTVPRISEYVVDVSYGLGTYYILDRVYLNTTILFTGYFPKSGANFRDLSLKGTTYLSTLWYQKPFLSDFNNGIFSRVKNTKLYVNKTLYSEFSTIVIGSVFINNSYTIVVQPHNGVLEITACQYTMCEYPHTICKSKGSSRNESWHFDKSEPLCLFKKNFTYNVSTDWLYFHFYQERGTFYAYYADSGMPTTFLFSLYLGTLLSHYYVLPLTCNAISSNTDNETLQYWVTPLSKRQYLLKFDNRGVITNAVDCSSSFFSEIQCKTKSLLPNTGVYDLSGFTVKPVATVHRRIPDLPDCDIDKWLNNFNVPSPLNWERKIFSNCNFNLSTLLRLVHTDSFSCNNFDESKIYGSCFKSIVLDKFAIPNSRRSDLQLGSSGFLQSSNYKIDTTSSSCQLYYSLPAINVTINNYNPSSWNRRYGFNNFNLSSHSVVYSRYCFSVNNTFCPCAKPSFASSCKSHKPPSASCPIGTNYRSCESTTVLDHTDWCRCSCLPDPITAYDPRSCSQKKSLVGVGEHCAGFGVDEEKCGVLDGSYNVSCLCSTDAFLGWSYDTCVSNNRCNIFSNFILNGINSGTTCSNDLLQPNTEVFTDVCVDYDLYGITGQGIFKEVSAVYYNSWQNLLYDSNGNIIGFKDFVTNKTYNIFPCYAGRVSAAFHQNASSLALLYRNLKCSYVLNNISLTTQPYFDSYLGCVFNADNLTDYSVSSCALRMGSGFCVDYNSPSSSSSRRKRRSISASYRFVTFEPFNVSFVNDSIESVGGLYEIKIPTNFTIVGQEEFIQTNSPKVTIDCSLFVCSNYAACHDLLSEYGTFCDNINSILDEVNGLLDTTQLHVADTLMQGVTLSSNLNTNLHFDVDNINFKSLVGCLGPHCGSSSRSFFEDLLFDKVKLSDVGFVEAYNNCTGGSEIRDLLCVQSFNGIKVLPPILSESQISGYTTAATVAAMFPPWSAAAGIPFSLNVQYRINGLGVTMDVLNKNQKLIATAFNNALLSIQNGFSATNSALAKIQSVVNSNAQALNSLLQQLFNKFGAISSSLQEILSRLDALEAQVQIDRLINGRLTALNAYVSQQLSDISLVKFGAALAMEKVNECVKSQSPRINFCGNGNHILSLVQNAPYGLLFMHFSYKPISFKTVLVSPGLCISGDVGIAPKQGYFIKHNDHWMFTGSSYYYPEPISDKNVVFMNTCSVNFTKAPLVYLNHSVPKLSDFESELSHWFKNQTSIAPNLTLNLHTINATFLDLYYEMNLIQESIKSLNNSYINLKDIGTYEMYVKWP

B1: ST-6 (structured_DNA)
DNA: AGCAGCACAGAGGTCAGATGAGGGCATCAAAGGGGGGAGGGCGGGTGGATTGGATGCCGACCTATGCGTGCTACCGTGAA
Q: Does B1 bind (SARS-CoV-2 spike trimer)?
A: binds

Q: Does B1 bind (HCoV-HKU1 spike protein)?
A: no binding

Q: Does B1 bind (TLR4)?
A: no binding

Q: Does B1 bind (ACE2)?
A: no binding

Q: Does B1 bind (SARS-CoV-2 spike RBD)?
A: no binding

Q: Does B1 bind (PDGF-AA)?
A: no binding

Q: Does B1 bind (SARS-CoV spike protein)?
A: no binding

Q: Does B1 bind (MERS-CoV spike protein)?
A: no binding

Q: Does GGGGAGGGCGGGTGGATTGGATGCCGA (structured_DNA) [ST-6-2] bind (SARS-CoV-2 spike trimer)?
A: binds

Q: Does GGGGAGGGCGGGTGGATTGGATGCCGA (structured_DNA) [ST-6-2] bind (HCoV-HKU1 spike protein)?
A: no binding

Q: Does GGGGAGGGCGGGTGGATTGGATGCCGA (structured_DNA) [ST-6-2] bind (TLR4)?
A: no binding

Q: Does GGGGAGGGCGGGTGGATTGGATGCCGA (structured_DNA) [ST-6-2] bind (ACE2)?
A: no binding

Q: Does GGGGAGGGCGGGTGGATTGGATGCCGA (structured_DNA) [ST-6-2] bind (SARS-CoV-2 spike RBD)?
A: no binding

Q: Does GGGGAGGGCGGGTGGATTGGATGCCGA (structured_DNA) [ST-6-2] bind (PDGF-AA)?
A: no binding

Q: Does GGGGAGGGCGGGTGGATTGGATGCCGA (structured_DNA) [ST-6-2] bind (SARS-CoV spike protein)?
A: no binding

Q: Does GGGGAGGGCGGGTGGATTGGATGCCGA (structured_DNA) [ST-6-2] bind (MERS-CoV spike protein)?
A: no binding

Q: Which results are given for AGGGCATCAAAGGGGGGAGGGCGGGTGGATTGGATGCCGA (structured_DNA) [ST-6-1]?
A: binding result (SARS-CoV-2 spike trimer): binds; binding result (HCoV-HKU1 spike protein): no binding; binding result (TLR4): no binding; binding result (ACE2): no binding; binding result (SARS-CoV-2 spike RBD): no binding; binding result (PDGF-AA): no binding; binding result (SARS-CoV spike protein): no binding; binding result (MERS-CoV spike protein): no binding
